B1: BTBD1 (parent)
chain: YGSIHGPTDYQVNIQIIEYEKKQT
B2: TEKT4 (parent)
chain: LREKLLEAEQSLRNLEDIHMSLEK

Variants of: B1
Test: protein stability index of a GFP-peptide fusion (GPS, HEK-293T) (PSI 1-6); higher = more stable
Details: c terminus: a fixed tail appended
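Also: lentivirally expressed fusions sorted by FACS into six bins by GFP to DsRed ratio, PSI derived from sequencing read proportions per bin multiplied by bin number.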

Variant	protein stability index
YGSIHGPTDYQVNIQIIETEKKQT	2.92
YGSIHGPTDYQVNIQIIECEKKQT	2.69
YGSIHGPTDYQVNIQIIEFEKKQT	2.14
YGSIHGPTDYQVNIQIIEAEKKQT	3.19
YGSIHGPTDYQVNIQIIEQEKKQT	3.29
YGSIHGPTDYQVNIQIIESEKKQT	3.56
YGSIHGPTDYQVNIQIIEVEKKQT	2.44
YGSIHGPTDYQVNIQIIEIEKKQT	2.39
YGSIHGPTDYQVNIQIIEKEKKQT	3.38
YGSIHGPTDYQVNIQIIEWEKKQT	2.5
YGSIHGPTDYQVNIQIIEREKKQT	3.01
YGSIHGPTDYQVNIQIIEPEKKQT	3.67
YGSIHGPTDYQVNIQIIENEKKQT	3.29
YGSIHGPTDYQVNIQIIELEKKQT	2.54
YGSIHGPTDYQVNIQIIEDEKKQT	3.76
YGSIHGPTDYQVNIQIIEHEKKQT	3.23
YGSIHGPTDYQVNIQIIEMEKKQT	3.03
YGSIHGPTDYQVNIQIIEGEKKQT	3.36
YGSIHGPTDYQVNIQIIEEEKKQT	4.05
YGSIHGPTDYQVNIQIIEYNKKQT	2.43
YGSIHGPTDYQVNIQIIEYFKKQT	1.84
YGSIHGPTDYQVNIQIIEYRKKQT	2.08
YGSIHGPTDYQVNIQIIEYPKKQT	1.72

Variant	protein stability index
YGSIHGPTDYQVNIQIIEYCKKQT	1.66
YGSIHGPTDYQVNIQIIEYMKKQT	2.33
YGSIHGPTDYQVNIQIIEYKKKQT	2.35
YGSIHGPTDYQVNIQIIEYAKKQT	2.39
YGSIHGPTDYQVNIQIIEYHKKQT	2.54
YGSIHGPTDYQVNIQIIEYLKKQT	2.25
YGSIHGPTDYQVNIQIIEYGKKQT	2.21
YGSIHGPTDYQVNIQIIEYYKKQT	1.88
YGSIHGPTDYQVNIQIIEYVKKQT	1.84
YGSIHGPTDYQVNIQIIEYQKKQT	2.2
YGSIHGPTDYQVNIQIIEYDKKQT	2.59
YGSIHGPTDYQVNIQIIEYWKKQT	2.15
YGSIHGPTDYQVNIQIIEYSKKQT	2
YGSIHGPTDYQVNIQIIEYTKKQT	2.25
YGSIHGPTDYQVNIQIIEYIKKQT	2.22
YGSIHGPTDYQVNIQIIEYEKKRT	2.51
YGSIHGPTDYQVNIQIIEYEKKMT	2.18
YGSIHGPTDYQVNIQIIEYEKKTT	2.13
YGSIHGPTDYQVNIQIIEYEKKVT	2.12
YGSIHGPTDYQVNIQIIEYEKKCT	1.8
YGSIHGPTDYQVNIQIIEYEKKLT	1.6
YGSIHGPTDYQVNIQIIEYEKKAT	2.33
YGSIHGPTDYQVNIQIIEYEKKYT	1.93

Variant	protein stability index
YGSIHGPTDYQVNIQIIEYEKKDT	2.46
YGSIHGPTDYQVNIQIIEYEKKET	2.72
YGSIHGPTDYQVNIQIIEYEKKIT	1.81
YGSIHGPTDYQVNIQIIEYEKKKT	2.74
YGSIHGPTDYQVNIQIIEYEKKST	2.43
YGSIHGPTDYQVNIQIIEYEKKFT	1.61
YGSIHGPTDYQVNIQIIEYEKKGT	2.76
YGSIHGPTDYQVNIQIIEYEKKWT	2.56
YGSIHGPTDYQVNIQIIEYEKKNT	2.88
YGSIHGPTDYQVNIQIIEYEKKHT	2.31
YGSIHGPTDYQVNIQIIEYEKKPT	2.28
YGSIHGPTDYQVNIQIIEYEKKQK	3.05
YGSIHGPTDYQVNIQIIEYEKKQW	2.23
YGSIHGPTDYQVNIQIIEYEKKQE	3.08
YGSIHGPTDYQVNIQIIEYEKKQF	1.84
YGSIHGPTDYQVNIQIIEYEKKQV	2.43
YGSIHGPTDYQVNIQIIEYEKKQC	2.16
YGSIHGPTDYQVNIQIIEYEKKQR	2.69
YGSIHGPTDYQVNIQIIEYEKKQQ	3.18
YGSIHGPTDYQVNIQIIEYEKKQM	2.36
YGSIHGPTDYQVNIQIIEYEKKQI	2.08
YGSIHGPTDYQVNIQIIEYEKKQA	3.1
YGSIHGPTDYQVNIQIIEYEKKQG	2.57

Variant	protein stability index
YGSIHGPTDYQVNIQIIEYEKKQN	2.9
YGSIHGPTDYQVNIQIIEYEKKQY	2.21
YGSIHGPTDYQVNIQIIEYEKKQS	2.98
YGSIHGPTDYQVNIQIIEYEKKQL	2.03
YGSIHGPTDYQVNIQIIEYEKKQP	2.3
YGSIHGPTDYQVNIQIIEYEKKQD	3.18
YGSIHGPTDYQVNIQIIEYEKKQH	2.9
YGSIHGPTDYQVNIQIIEYEVKQT	1.59
YGSIHGPTDYQVNIQIIEYETKQT	2.24
YGSIHGPTDYQVNIQIIEYEEKQT	2.7
YGSIHGPTDYQVNIQIIEYEIKQT	2.42
YGSIHGPTDYQVNIQIIEYEQKQT	2.52
YGSIHGPTDYQVNIQIIEYEMKQT	2.02
YGSIHGPTDYQVNIQIIEYERKQT	2.25
YGSIHGPTDYQVNIQIIEYEAKQT	1.82
YGSIHGPTDYQVNIQIIEYEDKQT	2.46
YGSIHGPTDYQVNIQIIEYELKQT	1.65
YGSIHGPTDYQVNIQIIEYESKQT	2.13
YGSIHGPTDYQVNIQIIEYEPKQT	1.95
YGSIHGPTDYQVNIQIIEYECKQT	1.96
YGSIHGPTDYQVNIQIIEYEGKQT	2.04
YGSIHGPTDYQVNIQIIEYENKQT	2.32
YGSIHGPTDYQVNIQIIEYEWKQT	2.8

Variant	protein stability index
YGSIHGPTDYQVNIQIIEYEFKQT	3.75
YGSIHGPTDYQVNIQIIEYEHKQT	1.83
YGSIHGPTDYQVNIQIIEYEYKQT	1.92
YGSIHGPTDYQVNIQIIEYEKCQT	1.52
YGSIHGPTDYQVNIQIIEYEKSQT	1.78
YGSIHGPTDYQVNIQIIEYEKQQT	2.75
YGSIHGPTDYQVNIQIIEYEKHQT	2.03
YGSIHGPTDYQVNIQIIEYEKTQT	1.93
YGSIHGPTDYQVNIQIIEYEKAQT	2.18
YGSIHGPTDYQVNIQIIEYEKFQT	1.39
YGSIHGPTDYQVNIQIIEYEKEQT	2.96
YGSIHGPTDYQVNIQIIEYEKVQT	2.54
YGSIHGPTDYQVNIQIIEYEKGQT	2.24
YGSIHGPTDYQVNIQIIEYEKPQT	1.72
YGSIHGPTDYQVNIQIIEYEKDQT	2.77
YGSIHGPTDYQVNIQIIEYEKRQT	2.14
YGSIHGPTDYQVNIQIIEYEKYQT	2.47
YGSIHGPTDYQVNIQIIEYEKNQT	2.5
YGSIHGPTDYQVNIQIIEYEKWQT	2.5
YGSIHGPTDYQVNIQIIEYEKMQT	2.59
YGSIHGPTDYQVNIQIIEYEKIQT	1.56
YGSIHGPTDYQVNIQIIEYEKLQT	2.03

Variants of: B2
Test: as above
Details: c terminus: a fixed tail appended

Variant	protein stability index
LREKLLEAEQSLRNLEDIIMSLEK	1.81
LREKLLEAEQSLRNLEDIRMSLEK	2.42
LREKLLEAYQSLRNLEDIHMSLEK	2.06
LREKLLEARQSLRNLEDIHMSLEK	3.25
LREKLLEAQQSLRNLEDIHMSLEK	1.98
LREKLLEREQSLRNLEDIHMSLEK	3.92
LREKLLEQEQSLRNLEDIHMSLEK	2.72
LREKLLENEQSLRNLEDIHMSLEK	4.59
LREKLLEGEQSLRNLEDIHMSLEK	2.2
LREKLLEAEQVLRNLEDIHMSLEK	1.47
LREKLLEAEQALRNLEDIHMSLEK	1.5
LREKLLEAEQMLRNLEDIHMSLEK	1.05
QREKLLEAEQSLRNLEDIHMSLEK	4.67
YREKLLEAEQSLRNLEDIHMSLEK	2.61
EREKLLEAEQSLRNLEDIHMSLEK	5.12
LREKLLEAEQSLRNLEDIHMCLEK	1.56
LREKLLEAEQSLRNLEDIHMDLEK	1.9
LREKLLEAEQSLRNLEDIHFSLEK	1.72
LREKLLEAEQSLRNLEDIHNSLEK	2.25
LREKLLEAEHSLRNLEDIHMSLEK	2.23
LREKLLEAEWSLRNLEDIHMSLEK	1.98
LREKLLEAEVSLRNLEDIHMSLEK	2.08
LREKLLEAEISLRNLEDIHMSLEK	1.34
LREKHLEAEQSLRNLEDIHMSLEK	4.08
LREKRLEAEQSLRNLEDIHMSLEK	4.49

Variant	protein stability index
LREKYLEAEQSLRNLEDIHMSLEK	3.86
LREKALEAEQSLRNLEDIHMSLEK	4.49
LREKVLEAEQSLRNLEDIHMSLEK	2.66
LREKLLEAEQSLRNLEDIHMSGEK	2.4
LREKLLEAEQSLRNLEDIHMSSEK	2.65
LREKLLEAEQSLRNLEDIHMSMEK	2.7
LREKLLEAEQSLRNLEDIHMSREK	3.2
LREKLLEAEQSLRNLEDIHMSHEK	2.89
LREKLLEAEQSLRNLEDIHMSYEK	2.08
LREKLLEAEQSLRNLEDIHMSLEP	2.03
LGEKLLEAEQSLRNLEDIHMSLEK	2.34
LDEKLLEAEQSLRNLEDIHMSLEK	2.72
LMEKLLEAEQSLRNLEDIHMSLEK	1.89
LREKLLEAEQSLRNLEDIHMSLFK	2.3
LREKLLEAEQSLRNLEDIHMSLTK	1.71
LREKLLEAEQSLRNLEDIHMSLDK	2.27
LREKLLEAEQSLRNLEDIHMSLLK	2.65
LREKLLEAEQSLRNLEDIHMSLRK	3.15
LREKLLEAEQSLRNLEDIHMSLMK	2.39
LREKLLEAEQSLRNLMDIHMSLEK	1.93
LREKLLEAEQSLRNLLDIHMSLEK	1.47
LREKLLEAEQSLRNLIDIHMSLEK	2.7
LREKLLHAEQSLRNLEDIHMSLEK	3.6
LREKLLKAEQSLRNLEDIHMSLEK	2.51
LREKLLIAEQSLRNLEDIHMSLEK	2.06

Variant	protein stability index
LREKLLAAEQSLRNLEDIHMSLEK	2.46
LREKLLEAEQSLRNLEMIHMSLEK	2.42
LREKLLEAEQSLRNLENIHMSLEK	1.62
LREKLLEAEQSLRNLEHIHMSLEK	2.29
LREKLLEAEQSLRNLEDMHMSLEK	1.95
LREKLLEAEQSLRNLEDYHMSLEK	2.3
LREKLLEAEQSLRNLEDEHMSLEK	1.69
LREKLLEAEQSLRNLEDWHMSLEK	3.13
LREKLLEAEQSLRNEEDIHMSLEK	2.71
LREKLREAEQSLRNLEDIHMSLEK	2.86
LREKLEEAEQSLRNLEDIHMSLEK	2.84
LREKLHEAEQSLRNLEDIHMSLEK	3.27
LREKLLEAEQSFRNLEDIHMSLEK	1.69
LREKLLEAEQSKRNLEDIHMSLEK	3.98
LREKLLEAEQSPRNLEDIHMSLEK	4.6
LREKLLEAEQSVRNLEDIHMSLEK	3.3
LREKLLEAEQSNRNLEDIHMSLEK	4.57
LRMKLLEAEQSLRNLEDIHMSLEK	2.88
LRLKLLEAEQSLRNLEDIHMSLEK	2.58
LRDKLLEAEQSLRNLEDIHMSLEK	2.02
LRENLLEAEQSLRNLEDIHMSLEK	3.27
LRETLLEAEQSLRNLEDIHMSLEK	3.9
LREKLLEAEQSLWNLEDIHMSLEK	2.09
LREKLLEAEQSLPNLEDIHMSLEK	2.45
